Laboratory results as given in patent publication CN101218351A (UNIV DUKE, dated 2008).

Target: T1, human CD19 (human, UniProt P15391 20-556)
T1 construct: whole, on cells; also called hCD19
T1 sequence (looked up): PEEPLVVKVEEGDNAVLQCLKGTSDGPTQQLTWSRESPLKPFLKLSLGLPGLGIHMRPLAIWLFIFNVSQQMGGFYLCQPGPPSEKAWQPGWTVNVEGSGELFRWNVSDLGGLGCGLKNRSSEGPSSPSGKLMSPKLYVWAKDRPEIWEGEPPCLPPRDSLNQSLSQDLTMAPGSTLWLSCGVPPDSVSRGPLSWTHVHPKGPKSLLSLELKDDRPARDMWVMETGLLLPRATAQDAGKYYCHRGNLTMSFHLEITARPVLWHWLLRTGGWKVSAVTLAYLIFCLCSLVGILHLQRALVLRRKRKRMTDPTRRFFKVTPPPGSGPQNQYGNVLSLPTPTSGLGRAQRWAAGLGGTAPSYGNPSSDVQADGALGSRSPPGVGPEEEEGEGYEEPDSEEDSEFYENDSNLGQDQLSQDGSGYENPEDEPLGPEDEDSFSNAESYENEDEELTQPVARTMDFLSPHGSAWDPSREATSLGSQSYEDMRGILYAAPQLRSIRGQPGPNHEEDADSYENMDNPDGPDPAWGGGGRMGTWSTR
Experiment: flow cytometry on hCD19 cDNA-transfected 300.19 cells, antibody at 5 ug/mL, anti-mouse Ig PE secondary

B1: FMC63 anti-CD19 antibody (antibody, IgG2a, V domains shown)
VH: EVKLQESGPGLVAPSQSLSVTCTVSGVSLPDYGVSWIRQPPRKGLEWLGVIWGSEDTTYYNSALKSRLTIIKDNSKSQVFLKMNSLQTDDTAIYYCAKHYYYGGSYAMDYWGQGTSVTVSS
VL: DIQMTQTTSSLSASLGDRVTISCRASQDISKYLNWYQQKPDGTVKLLIYHTSRLHSGVPSRFSGSGSGTDYSLTISNLEQEDIATYFCQQGNTLPYTFGGGTKLEIT
notes: Mouse monoclonal IgG2a, bought from Chemicon International
binding result: binds
